± gives the standard deviation of the averaged measurements.
Experiment: total protein half-life in vivo (active degradation + dilution); higher = more stable protein
[1] = E. coli NCM3722 delta-clpP delta-lon delta-hslV, growth: N-lim chemostat, doubling time 6 h
[2] = E. coli NCM3722 delta-clpP, growth: N-lim chemostat, doubling time 6 h
[3] = E. coli NCM3722 delta-hslV, growth: N-lim chemostat, doubling time 6 h
[4] = E. coli NCM3722 delta-lon, growth: N-lim chemostat, doubling time 6 h
[5] = E. coli NCM3722 delta-smpB, growth: N-lim chemostat, doubling time 6 h
[6] = wild type E. coli NCM3722, growth: N-lim chemostat, doubling time 6 h
[7] = wild type E. coli NCM3722, growth: N-lim chemostat, doubling time 12 h
[8] = wild type E. coli NCM3722, growth: P-lim chemostat, doubling time 6 h
[9] = wild type E. coli NCM3722, growth: P-lim chemostat, doubling time 12 h
[10] = wild type E. coli NCM3722, growth: C-lim chemostat, doubling time 6 h
[11] = wild type E. coli NCM3722, growth: C-lim chemostat, doubling time 12 h
[12] = wild type E. coli NCM3722, growth: C-lim chemostat, doubling time 3 h

| Sequence | total protein half-life in vivo [1] | total protein half-life in vivo [2] | total protein half-life in vivo [3] | total protein half-life in vivo [4] | total protein half-life in vivo [5] | total protein half-life in vivo [6] | total protein half-life in vivo [7] | total protein half-life in vivo [8] | total protein half-life in vivo [9] | total protein half-life in vivo [10] | total protein half-life in vivo [11] | total protein half-life in vivo [12] |
| --- | --- | --- | --- | --- | --- | --- | --- | --- | --- | --- | --- | --- |
| MDICSRNKKLTIRRPAILVALALLLCSCKSTPPESMVTPPAGSKPPATTQQSSQPMRGIWLATVSRLDWPPVSSVNISNPTSRARVQQQAMIDKLDHLQRLGINTVFFQVKPDGTALWPSKILPWSDLMTGKIGENPGYDPLQFMLDEAHKRGMKVHAWFNPYRVSVNTKPGTIRELNSTLSQQPASVYVQHRDWIRTSGDRFVLDPGIPEVQDWITSIVAEVVSRYPVDGVQFDDYFYTESPGSRLNDNETYRKYGGAFASKADWRRNNTQQLIAKVSHTIKSIKPGVEFGVSPAGVWRNRSHDPLGSDTRGAAAYDESYADTRRWVEQGLLDYIAPQIYWPFSRSAARYDVLAKWWADVVKPTRTRLYIGIAFYKVGEPSKIEPDWMINGGVPELKKQLDLNDAVPEISGTILFREDYLNKPQTQQAVSYLQSRWGS | > 8 h | 4.93 ± 1.2 h | 1.61 h | 2.787 ± 0.01 h | 1.73 ± 0.075 h | 1.89 ± 0.55 h | 3.44 ± 0.99 h | 2.29 ± 0.57 h | 4.65 ± 0.26 h |  |  |  |
| MDIPVNAAKPGRRRYLTLVMIFITVVICYVDRANLAVASAHIQEEFGITKAEMGYVFSAFAWLYTLCQIPGGWFLDRVGSRVTYFIAIFGWSVATLFQGFATGLMSLIGLRAITGIFEAPAFPTNNRMVTSWFPEHERASAVGFYTSGQFVGLAFLTPLLIWIQEMLSWHWVFIVTGGIGIIWSLIWFKVYQPPRLTKGISKAELDYIRDGGGLVDGDAPVKKEARQPLTAKDWKLVFHRKLIGVYLGQFAVASTLWFFLTWFPNYLTQEKGITALKAGFMTTVPFLAAFVGVLLSGWVADLLVRKGFSLGFARKTPIICGLLISTCIMGANYTNDPMMIMCLMALAFFGNGFASITWSLVSSLAPMRLIGLTGGVFNFAGGLGGITVPLVVGYLAQGYGFAPALVYISAVALIGALSYILLVGDVKRVG [P0AA76] |  |  |  |  |  |  |  |  |  | 4.54 ± 0.49 h | 7.29 ± 0.43 h |  |
| MDKFRVQGPTKLQGEVTISGAKNAALPILFAALLAEEPVEIQNVPKLKDVDTSMKLLSQLGAKVERNGSVHIDARDVNVFCAPYDLVKTMRASIWALGPLVARFGQGQVSLPGGCTIGARPVDLHISGLEQLGATIKLEEGYVKASVDGRLKGAHIVMDKVSVGATVTIMCAATLAEGTTIIENAAREPEIVDTANFLITLGAKISGQGTDRIVIEGVERLGGGVYRVLPDRIETGTFLVAAAISRGKIICRNAQPDTLDAVLAKLRDAGADIEVGEDWISLDMHGKRPKAVNVRTAPHPAFPTDMQAQFTLLNLVAEGTGFITETVFENRFMHVPELSRMGAHAEIESNTVICHGVEKLSGAQVMATDLRASASLVLAGCIAEGTTVVDRIYHIDRGYERIEDKLRALGANIERVKGE [P0A749] | 4.88 ± 0.64 h | 3.91 ± 0.28 h | 3.48 ± 0.22 h | 4.25 ± 0.55 h | 3.39 ± 0.23 h | 3.47 ± 0.084 h | 5.28 ± 0.25 h | 5.53 ± 0.1 h | 10.9 ± 0.56 h | 6.05 ± 1.2 h | 9.85 ± 0.48 h | 2.92 ± 0.043 h |
| MDKIFVDEAVNELQTIQDMLRWSVSRFSAANIWYGHGTDNPWDEAVQLVLPSLYLPLDIPEDMRTARLTSSEKHRIVERVIRRVNERIPVAYLTNKAWFCGHEFYVDERVLVPRSPIGELINNKFAGLISKQPQHILDMCTGSGCIAIACAYAFPDAEVDAVDISPDALAVAEQNIEEHGLIHNVIPIRSDLFRDLPKVQYDLIVTNPPYVDAEDMSDLPNEYRHEPELGLASGTDGLKLTRRILGNAADYLADDGVLICEVGNSMVHLMEQYPDVPFTWLEFDNGGDGVFMLTKEQLIAAREHFAIYKD | 5.46 ± 2.1 h | 3.84 ± 0.055 h | 3.656 ± 0.0091 h | 3.97 ± 0.38 h | 3.9 ± 0.11 h | 3.85 ± 0.054 h | 6.16 ± 0.26 h | 5.56 ± 0.2 h | 11 ± 1.2 h | 5.74 ± 0.41 h | 10 ± 0.21 h | 2.81 ± 0.12 h |
| MDKLLERFLNYVSLDTQSKAGVRQVPSTEGQWKLLHLLKEQLEEMGLINVTLSEKGTLMATLPANVPGDIPAIGFISHVDTSPDCSGKNVNPQIVENYRGGDIALGIGDEVLSPVMFPVLHQLLGQTLITTDGKTLLGADDKAGIAEIMTALAVLQQKKIPHGDIRVAFTPDEEVGKGAKHFDVDAFDARWAYTVDGGGVGELEFENFNAASVNIKIVGNNVHPGTAKGVMVNALSLAARIHAEVPADESPEMTEGYEGFYHLASMKGTVERADMHYIIRDFDRKQFEARKRKMMEIAKKVGKGLHPDCYIELVIEDSYYNMREKVVEHPHILDIAQQAMRDCDIEPELKPIRGGTDGAQLSFMGLPCPNLFTGGYNYHGKHEFVTLEGMEKAVQVIVRIAELTAQRK | 4.47 ± 0.093 h | 4.26 ± 0.49 h | 3.88 ± 0.14 h | 4.53 ± 0.13 h | 4.04 ± 0.089 h | 3.97 ± 0.13 h | 5.85 ± 0.25 h | 5.38 ± 0.2 h | 10.3 ± 0.14 h | 6.32 ± 1.1 h | 9.74 ± 0.59 h | 3.079 ± 0.019 h |

Source: the supplement of paper PMC11246515
